Source: patent US20170008928A1, “NOVEL PEPTIDES AND PEPTIDE DERIVATIVES AND USES THEREOF” (Novo Nordisk A/S, priority 2015, published 2017)
Starred links: 1 amine or outer side, 2 acyl side, 3 side chain; linkers in the order of their positions; H or OH if unused. Non-standard residues stand in square brackets, D forms with d. No end group written: not given here. *: point of attachment. Phe(4-CH2SO3H) = N[C@@H](Cc1ccc(CS(=O)(=O)O)cc1)C(=O)O; C20 diacid = O=C(O)CCCCCCCCCCCCCCCCCCC(=O)*; sY = N[C@@H](Cc1ccc(OS(=O)(=O)O)cc1)C(=O)O; C18 diacid = O=C(O)CCCCCCCCCCCCCCCCC(=O)*; C16 diacid = O=C(O)CCCCCCCCCCCCCCC(=O)*; γGlu = O=C(O)[C@H](CCC(=O)[*:2])N[*:1]; C14 diacid = O=C(O)CCCCCCCCCCCCC(=O)*; βAsp = O=C(O)[C@H](CC(=O)[*:2])N[*:1]; Met(O2) = CS(=O)(=O)CC[C@H](N)C(=O)O; NMeF = CN[C@@H](Cc1ccccc1)C(=O)O; dNMeD = CN[C@H](CC(=O)O)C(=O)O; Nle = CCCC[C@H](N)C(=O)O; AEEA = NCCOCCOCC(=O)O

T1: human cholecystokinin-1 receptor (human, UniProt P32238 1-428)
T1 sequence (looked up): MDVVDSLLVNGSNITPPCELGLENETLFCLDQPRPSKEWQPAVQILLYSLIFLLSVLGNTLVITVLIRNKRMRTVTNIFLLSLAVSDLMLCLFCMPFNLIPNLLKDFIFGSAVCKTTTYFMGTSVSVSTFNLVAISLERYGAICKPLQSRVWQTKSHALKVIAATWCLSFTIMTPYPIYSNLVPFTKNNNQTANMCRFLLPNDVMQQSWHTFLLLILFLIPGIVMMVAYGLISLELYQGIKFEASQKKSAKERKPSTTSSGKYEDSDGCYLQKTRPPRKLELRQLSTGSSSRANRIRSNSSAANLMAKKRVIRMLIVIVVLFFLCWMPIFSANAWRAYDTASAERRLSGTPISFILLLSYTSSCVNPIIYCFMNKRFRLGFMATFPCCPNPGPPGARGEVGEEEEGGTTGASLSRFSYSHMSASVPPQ

T2: human cholecystokinin-2 receptor (human, UniProt P32239 1-447)
T2 sequence (looked up): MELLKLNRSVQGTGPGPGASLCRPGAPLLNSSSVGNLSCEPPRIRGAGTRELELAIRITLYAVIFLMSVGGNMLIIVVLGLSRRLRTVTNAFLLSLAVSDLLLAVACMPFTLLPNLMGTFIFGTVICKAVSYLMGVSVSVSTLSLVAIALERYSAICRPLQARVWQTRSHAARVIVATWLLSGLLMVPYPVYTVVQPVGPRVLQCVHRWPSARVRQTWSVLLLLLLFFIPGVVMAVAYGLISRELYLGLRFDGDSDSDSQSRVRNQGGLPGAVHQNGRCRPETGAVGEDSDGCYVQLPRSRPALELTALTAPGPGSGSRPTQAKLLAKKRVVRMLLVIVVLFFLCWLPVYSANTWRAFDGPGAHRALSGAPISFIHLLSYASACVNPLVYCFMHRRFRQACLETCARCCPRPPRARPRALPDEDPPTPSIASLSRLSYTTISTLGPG

B1: 2-[2-[2-[[2-[2-[2-[[(4S)-4-Carboxy-4-(13-carboxytridecanoylamino)butanoyl]amino]ethoxy]ethoxy]acetyl]amino]ethoxy]ethoxy]acetyl-Glu-sTyr-Leu-Gly-Trp-Nle-DMeAsp- … (peptide)
peptide: {C14 diacid-γGlu-AEEA-AEEA}-E[sY]LGW[Nle][dNMeD][NMeF]-NH2
SMILES: CCCC[C@H](NC(=O)[C@H](Cc1c[nH]c2ccccc12)NC(=O)CNC(=O)[C@H](CC(C)C)NC(=O)[C@H](Cc1ccc(OS(=O)(=O)O)cc1)NC(=O)[C@H](CCC(=O)O)NC(=O)COCCOCCNC(=O)COCCOCCNC(=O)CC[C@H](NC(=O)CCCCCCCCCCCCC(=O)O)C(=O)O)C(=O)N(C)[C@H](CC(=O)O)C(=O)N(C)[C@@H](Cc1ccccc1)C(N)=O
notes: X = Nle or Nal
B2: Asp-sTyr-Phe-Gly-Trp-Nle-DMeAsp-MePhe-amide (peptide)
peptide: D[sY]FGW[Nle][dNMeD][NMeF]-NH2
modifications: N-terminus assumed
SMILES: CCCC[C@H](NC(=O)[C@H](Cc1c[nH]c2ccccc12)NC(=O)CNC(=O)[C@H](Cc1ccccc1)NC(=O)[C@H](Cc1ccc(OS(=O)(=O)O)cc1)NC(=O)[C@@H](N)CC(=O)O)C(=O)N(C)[C@H](CC(=O)O)C(=O)N(C)[C@@H](Cc1ccccc1)C(N)=O
notes: X = Nle or Nal
B3: 2-[2-[2-[[2-[2-[2-[[(4S)-4-Carboxy-4-(17-carboxyheptadecanoylamino)butanoyl]amino]ethoxy]ethoxy]acetyl]amino]ethoxy]ethoxy]acetyl-Glu-sTyr-Leu-Gly-Trp-Nle-DMeAs … (peptide)
peptide: {C18 diacid-γGlu-AEEA-AEEA}-E[sY]LGW[Nle][dNMeD]F-NH2
SMILES: CCCC[C@H](NC(=O)[C@H](Cc1c[nH]c2ccccc12)NC(=O)CNC(=O)[C@H](CC(C)C)NC(=O)[C@H](Cc1ccc(OS(=O)(=O)O)cc1)NC(=O)[C@H](CCC(=O)O)NC(=O)COCCOCCNC(=O)COCCOCCNC(=O)CC[C@H](NC(=O)CCCCCCCCCCCCCCCCC(=O)O)C(=O)O)C(=O)N(C)[C@H](CC(=O)O)C(=O)N[C@@H](Cc1ccccc1)C(N)=O
notes: X = Nle or Nal
B4: 2-[2-[2-[[2-[2-[2-[[(4S)-4-Carboxy-4-(19-carboxynonadecanoylamino)butanoyl]amino]ethoxy]ethoxy]acetyl]amino]ethoxy]ethoxy]acetyl-Glu-sTyr-Leu-Gly-Trp-Nle-DMeAsp … (peptide)
peptide: {C20 diacid-γGlu-AEEA-AEEA}-E[sY]LGW[Nle][dNMeD][NMeF]-NH2
SMILES: CCCC[C@H](NC(=O)[C@H](Cc1c[nH]c2ccccc12)NC(=O)CNC(=O)[C@H](CC(C)C)NC(=O)[C@H](Cc1ccc(OS(=O)(=O)O)cc1)NC(=O)[C@H](CCC(=O)O)NC(=O)COCCOCCNC(=O)COCCOCCNC(=O)CC[C@H](NC(=O)CCCCCCCCCCCCCCCCCCC(=O)O)C(=O)O)C(=O)N(C)[C@H](CC(=O)O)C(=O)N(C)[C@@H](Cc1ccccc1)C(N)=O
notes: X = Nle or Nal
B5: 2-[2-[2-[[2-[2-[2-[[(4S)-4-Carboxy-4-(17-carboxyheptadecanoylamino)butanoyl]amino]ethoxy]ethoxy]acetyl]amino]ethoxy]ethoxy]acetyl-bAsp-Phe(4-sulfomethyl)-Nle-Gl … (peptide)
peptide: {C18 diacid-γGlu-AEEA-AEEA}-[βAsp][Phe(4-CH2SO3H)][Nle]GW[Nle][dNMeD][NMeF]-NH2
SMILES: CCCC[C@H](NC(=O)[C@H](Cc1ccc(CS(=O)(=O)O)cc1)NC(=O)C[C@H](NC(=O)COCCOCCNC(=O)COCCOCCNC(=O)CC[C@H](NC(=O)CCCCCCCCCCCCCCCCC(=O)O)C(=O)O)C(=O)O)C(=O)NCC(=O)N[C@@H](Cc1c[nH]c2ccccc12)C(=O)N[C@@H](CCCC)C(=O)N(C)[C@H](CC(=O)O)C(=O)N(C)[C@@H](Cc1ccccc1)C(N)=O
notes: X = Nle or Nal
B6: 17-Carboxyheptadecanoyl-Gly-Ser-Ser-Gly-Ser-Ser-Asp-sTyr-Leu-Gly-Trp-Nle-DMeAsp-MePhe-amide (peptide)
peptide: {C18 diacid}-GSSGSSD[sY]LGW[Nle][dNMeD][NMeF]-NH2
SMILES: CCCC[C@H](NC(=O)[C@H](Cc1c[nH]c2ccccc12)NC(=O)CNC(=O)[C@H](CC(C)C)NC(=O)[C@H](Cc1ccc(OS(=O)(=O)O)cc1)NC(=O)[C@H](CC(=O)O)NC(=O)[C@H](CO)NC(=O)[C@H](CO)NC(=O)CNC(=O)[C@H](CO)NC(=O)[C@H](CO)NC(=O)CNC(=O)CCCCCCCCCCCCCCCCC(=O)O)C(=O)N(C)[C@H](CC(=O)O)C(=O)N(C)[C@@H](Cc1ccccc1)C(N)=O
notes: X = Nle or Nal; The Gly-Ser-Ser-Gly-Ser-Ser linker is written as part of the chain
B7: bAsp-Phe(4-sulfomethyl)-Nle-Gly-Trp-Nle-DMeAsp-MePhe-amide (peptide)
peptide: [βAsp][Phe(4-CH2SO3H)][Nle]GW[Nle][dNMeD][NMeF]-NH2
modifications: N-terminus assumed
SMILES: CCCC[C@H](NC(=O)[C@H](Cc1ccc(CS(=O)(=O)O)cc1)NC(=O)C[C@H](N)C(=O)O)C(=O)NCC(=O)N[C@@H](Cc1c[nH]c2ccccc12)C(=O)N[C@@H](CCCC)C(=O)N(C)[C@H](CC(=O)O)C(=O)N(C)[C@@H](Cc1ccccc1)C(N)=O
notes: X = Nle or Nal

What was measured:
[1] = biological target: T1, human cholecystokinin-1 receptor; experiment: cell-based or functional assay
[2] = biological target: T1, human cholecystokinin-1 receptor; experiment: SPA competition vs [125I]-CCK-8s, membranes
Method: (§1) CCK receptor binding assays were performed in 96-well Optiplates (Cat #6005290, PerkinElmer, Waltham, Mass., USA) in a total volume of 200 μl per well.
(§2) The plates were sealed and incubated in the dark at +22° C. for 2 hours on a IKA MTS plate shaker (IKA-Werke D-79219 Staufen) set at 300 rpm and thereafter centrifuged at 1500 rpm for 10 minutes in a Heraeus Multifuge 3s centrifuge. SPA bead light emission was measured in a TopCount NXT (PerkinElmer) for 2 min/well after a delay of 60 min.

[3] = biological target: T2, human cholecystokinin-2 receptor; experiment: cell-based or functional assay
[4] = biological target: T2, human cholecystokinin-2 receptor; experiment: SPA competition vs [125I]-CCK-8s, membranes
Method: as §1, §2

Row | Binder | EC50 (CCK-1R) [1] [nM] | IC50 [2] [nM] | EC50 (CCK-2R) [3] [nM] | IC50 [4] [nM]
1 | {C18 diacid-γGlu-AEEA-AEEA}-[dD][Phe(4-CH2SO3H)][Nle]GW[Nle][dNMeD][NMeF]-NH2 (X = Nle or Nal) | 0.37 | 0.072 | – | –
2 | B1 | – | – | 150 | 1200
3 | {C18 diacid-γGlu-AEEA-AEEA}-[dE][sY]LGW[Nle][dNMeD][NMeF]-NH2 (X = Nle or Nal) | – | – | 46 | 700
4 | D[sY]RGW[Nle][dNMeD][NMeF]-NH2 (X = Nle or Nal) [Asp-sTyr-Arg-Gly-Trp-Nle-DMeAsp-MePhe-amide] | – | – | 910 | 1500
5 | {C18 diacid-γGlu-AEEA-AEEA}-D[sY]IGW[Nle][dNMeD][NMeF]-NH2 (X = Nle or Nal) | – | – | 210 | 340
6 | B2 | 0.22 | – | > 1000 | –
7 | B3 | 0.37 | – | 94 | 480
8 | {C18 diacid-γGlu-AEEA-AEEA}-D[sY]HGW[Nle][dNMeD][NMeF]-NH2 (X = Nle or Nal) | – | – | > 1000 | 9000
9 | {C18 diacid-γGlu-AEEA-AEEA}-E[sY]LGW[Nle][dNMeD][NMeF]-NH2 (X = Nle or Nal) | – | – | 62 | 2400
10 | {C16 diacid-γGlu-AEEA-AEEA}-E[sY]LGW[Nle][dNMeD][NMeF]-NH2 (X = Nle or Nal) | – | – | 110 | 590
11 | B4 | – | – | 32 | 430
12 | {C18 diacid-γGlu-AEEA-AEEA}-D[Phe(4-CH2SO3H)]LGW[Nle][dNMeD][NMeF]-NH2 (X = Nle or Nal) | – | – | 81 | 380
13 | {C18 diacid-γGlu-AEEA-AEEA}-D[sY]PGW[Nle][dNMeD][NMeF]-NH2 (X = Nle or Nal) | – | – | 300 | 5200
14 | B5 | 0.36 | 0.063 | – | –
15 | D[sY]LGW[Met(O2)][dNMeD][NMeF]-NH2 [Asp-sTyr-Leu-Gly-Trp-Met(O2)-DMeAsp-MePhe-amide] | 0.37 | – | > 1000 | –
16 | E[sY]LGWQ[dNMeD][NMeF]-NH2 [Glu-sTyr-Leu-Gly-Trp-Gln-DMeAsp-MePhe-amide] | – | 0.085 | > 1000 | –
17 | B6 | 0.61 | – | 17 | 370
18 | {C18 diacid-γGlu-AEEA-AEEA}-D[Phe(4-CH2SO3H)][Nle]GW[Nle][dNMeD][NMeF]-NH2 (X = Nle or Nal) | – | 0.26 | – | –
19 | B7 | 0.19 | – | > 1000 | 2900
20 | EGPWLEEEEEAYGWMDF (N-terminal pyroglutamic acid (pE, Pyr); C-terminal amide; Tyr non-sulfated) | 530 | 340 | – | –
